# Laboratory results as given in the nanobody polyreactivity screen of Harvey et al. (2022).
# Assay: yeast display, Sf9 membrane polyspecificity reagent, FACS + sequencing; frameworks hold sequencing errors
# How it was run: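 A nanobody's polyreactivity label depends on the gate it was sorted from. Yeast display cells were stained with 10% biotinylated, detergent-solubilized Sf9 membrane reagent for 1 hour at 4 °C, enriched on streptavidin microbeads and sorted by FACS. The low and high (top ~1%) gates were set on anti-HA fluorescence for expression and streptavidin fluorescence for reagent binding.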
row,Sequence,polyreactivity (PSR sort gate)
1,QVQLVESGGGLVQAGGSLRLSCAASGSIFRINAMGWYRQAPGKERELVAAITRSGGSTFYADSVKGRFTISRDNAKNTVYLQMNSLKPEDTAVYYCAAVWYYSTVPARYEYWGQGTQVTVSS,low polyreactivity
2,QVQLVESGGGLVHAGGSLRLSCAASGSIFGDYAMGWYRQAPGKERELVAAITRRGSTYYADSVKGRFTISRDNAKNTVYLQMNSLIPEDTAVFYCAKDVYPGRAGRPGIPYPYDYWGQGTQVTVSS,low polyreactivity
3,KVQLQESGGGLVQAGGSLRLSCAASCTISQEDWMGWYRQAPGKEREFVAAIGLGSNTNYADSLKGRFPISRDNAKNTVYLQMNSLKPEDTAVYYCAVSVWQYSDHVYRGQGTQVTVSS,low polyreactivity
4,QVQLVESGGALVQAGGSLRLSCAASGRTYRWYAMGWYRQAPGKESELVARIRGSGGSTYADSVKGRFTISRDNAKNTVNLEMNSLTPEDTAVYYCARKVTGRNGAQFYVSYYYWGQGTQVPVSS,low polyreactivity
5,QVQLVESGGGLVQAGGSLRLSCAASGSTLVYNDMGWYRQAPGKEREFVAAIRSNDGSTYYADSVKGRFTISRDNAKNTVYLQMNSLKPEDTAVYYCNARNQVYKIYYSDYRRYDYWGQGTQVTVSS,low polyreactivity
6,QVKLVESGGGLVQAGGSLRLSCAASGGTFQPNARGWNRQAPGKERELVAAISWSDGSTYYADSVKGRFTISRDNAKNTVYLQMNSLKPEDTAVYYCAADFTYYDSPYRDYNYESWGQGTQVTVSS,low polyreactivity
7,QVLLQESGGGLVQAGGSLRLSCAASGTISTDIRMGWYRLAPGKEREFVASIDGCSTTYYADSVKGRFTISRDNAKNTVFLQMNSLKPEDTAMYYCAAREATEFYLYYWGQGTQVTVSS,low polyreactivity
8,QVQLLESGGGLVQSGGSLRLSCADSGNIFVTYAMGWYRQAPGKESELVAGITSSDDSTYYADSVKVRFTISLDNAKNTVYLQMNSLKPEDTAVYYCATYYWEVGIGQFYYWGQGTQVTVSS,low polyreactivity
9,QVQLVESGGGLVQGGGSLRLSCAASGSTIPSYAMGCYRQAPGKERELVASITYSDGTTRYADSVKGRFTISRDHAKNPVYLQMNSLIPEDTELYSCNAVYYREGMDYWGQGTQVTVSS,low polyreactivity
10,QVQLQESGGDLEQAGGSLRLSCTASGTISDVRVMGWSRQAPGKERELVATISYVTITYYADSVKGRFTISRDSEKHRVSADDEPETGRYRGVLFRYYWGLGTQVTVSS,low polyreactivity
11,QDQLVESGGGLVQAGGSLRLSCAASGFTFNIYAMGWYRQAPGKERELVAAISWSGGRTNYADSVKGRFTISRDNAKKTVYLQMNSLKPEATAVYYCAVRYKSWYGFNYWGQGTQVTVSS,high polyreactivity
12,QVQLVESGGGLVQAGGSLRLSCAASGSIFFGYAMGWYRQAPGKEREFVAAITASGVRTYYADSVKGRFTISRDNAKNTVYLQMNSLKPEDTAVYYCAARIGTGVLPARGAKSHMDYWGQGTQVPVSS,low polyreactivity
13,QVQLQESGGGLVQAGGSLRMSCAASGTISPLPAMGWYRQAPGKDRDFVAGIDTGAITNYADSVKGRFTISRDNAKNTVYLQMNSLKPEDTAVYYCAVFPAAYDYYERYYTYWGQGTQVTVSS,low polyreactivity
14,QVQLVESGGGIVQAGGSLRLSCAASGIIFPVYAMGWYRQAPGKERELVAAISRSGGSTYYADSVKGRFTISRDNAKNNVYLQMNSLKPEDTAVYYCAARYVVGYSLSSYGYWGQGTQVTVSS,high polyreactivity
15,QVQLVESGGGLVQAGGSLRLSCAASGSIFVAYAKGWYRPAPGKERELVAAISSSGGTTYYADSVKGRFTISRDNAKITVYLQMNSLKPEDSAVYYCAARDYKYYYWGQGTQVTVSS,high polyreactivity
16,QVHLVESGGALVQAGGSLRLSCAASGRTFGIYAMGWYRQAPGKERELVATISWRGGSTYYADSVKGRFPISRDNAKNTVYLQMNSLKPEDTAVYYCAAGYYPYWGQGTQVTVSS,low polyreactivity
17,QVQLVESGAGLVQAGGSLRLSWAASGSNYDIYAMGWYRQAPGKERELVAAITGSGGSTNYADSVKGRFTISRDNAKNTVYVQLNSLKPEDTAVYYCAAAGFDYPSDTYGYWGQGTQVTVSS,low polyreactivity
